What all share (assay): EMSA; EMSA: 50 mM NaCl, 10 mM Tris-HCl pH 8.0, 10% glycerol; protein 0-2000 nM; 30 min at 30 °C then 30 min at room temperature; 6% native PAGE in 0.5x TBE; 3 replicates
Common to all, as to settings: protein: recombinant; tags: N-terminal Strep-Tag II, C-terminal 10xHis; label: IRDye 700

One series has as its target T1, TBX5 T-box domain I54T (human? (UniProt Q99593 used for …, UniProt Q99593 48-248, I54T)).
T1 sequence: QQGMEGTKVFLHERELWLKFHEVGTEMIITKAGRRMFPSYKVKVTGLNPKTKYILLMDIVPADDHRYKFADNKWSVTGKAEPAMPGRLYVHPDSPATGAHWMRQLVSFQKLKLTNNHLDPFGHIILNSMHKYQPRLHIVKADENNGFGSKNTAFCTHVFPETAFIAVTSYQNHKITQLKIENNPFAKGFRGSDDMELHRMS

The target of a further series is T2, TBX5 T-box domain M74V (human? (UniProt Q99593 used for …, UniProt Q99593 48-248, M74V)).
T2 sequence: T1 sequence with T7I, M27V

In the next series the target is T3, TBX5 T-box domain I101F (human? (UniProt Q99593 used for …, UniProt Q99593 48-248, I101F)).
T3 sequence: T1 sequence with T7I, I54F

The target of the next series is T4, TBX5 T-box domain R237W (human? (UniProt Q99593 used for …, UniProt Q99593 48-248, R237W)).
T4 sequence: T1 sequence with T7I, R190W

A further series deals with T5, TBX5 T-box domain R113K (human? (UniProt Q99593 used for …, UniProt Q99593 48-248, R113K)).
T5 sequence: T1 sequence with T7I, R66K

For 2 molecules, binding signal results are on record in paper PMC12588321, “Congenital heart disease missense mutations in the TBX5 DNA-binding domain alter thermal stability and DNA-binding affinity”.

Residue numbers refer to the chain shown, from its start.

B1: Nppa (ANF) promoter probe (dsDNA)
DNA 1: CCCGGTTTTGTGATTCTCTCTCTCACACCTTCAGCAGGAACGTGCCAATGCCGCCGTAAG
DNA 2: CTTACGGCGGCATTGGCACGTTCCTGCTGAAGGTGTGAGAGAGAGAATCACAAAACCGGG
In the case of B1, the binding signal with TBX5 T-box domain I54T was -1.65 fold change in Bmax vs WT; in the series with TBX5 T-box domain M74V it was -3.27 fold change in Bmax vs WT; in the series with TBX5 T-box domain I101F it was -1.26 fold change in Bmax vs WT; with TBX5 T-box domain R237W it was -3.76 fold change in Bmax vs WT; with TBX5 T-box domain R113K, -2.87 fold change in Bmax vs WT.

B2: Camta1 promoter probe (dsDNA)
DNA 1: GCAGATCTCCTGCTGGGCTGACACCTCACTATCGCAGAACCGTGCCAATGCCGCCGTAAG
DNA 2: CTTACGGCGGCATTGGCACGGTTCTGCGATAGTGAGGTGTCAGCCCAGCAGGAGATCTGC
Regarding B2, the binding signal is -1.34 fold change in Bmax vs WT with TBX5 T-box domain I54T; -2.93 fold change in Bmax vs WT with TBX5 T-box domain M74V; -1.38 fold change in Bmax vs WT with TBX5 T-box domain I101F; -10.5 fold change in Bmax vs WT with TBX5 T-box domain R237W; -1.49 fold change in Bmax vs WT in the series with TBX5 T-box domain R113K.
